Source: article PMC4769699 (Environmental microbiology reports, 2015)

Biological target: the molecule itself
Experiment: native MS

B1: AmrZ1-66 (AmrZ without the C-terminal domain) (domain or fragment)
chain: MRPLKQATPTYSSRTADKFVVRLPEGMREQIAEVARSHHRSMNSEIIARLEQSLLQEGALQDNLGV
Q: How did the “stoichiometry N” value turn out when B1 was run?
A: Its value is 2.
